In US12570975B2, “Composition for diagnosis or treatment of a condition associated with increased activity of EIF4E comprising an EIF4E inhibitor” (SoVarGen Co., Ltd., priority 2019, dated 2026):

How the values were obtained:
FMCD animal models = test: Metformin treatment of FMCD animal models, video-EEG seizure analysis; format: in vivo, mouse
Description: In this experiment, metformin was intraperitoneally injected at a dose of […] into the FMCD animal models of Example 1 from P14 to P56 for early treatment and from P84 to P114 for late treatment.

eIF4E [1] = test: Western blot of eIF4E knockdown by sheIF4E in cell lysates (Neuro2A); format: cell-based, mouse; details: vs shScramble
Method: The pSicoR vector digested with HpaI and XhoI restriction enzymes was ligated with the shScramble or the sheIF4E sequence in the presence of ligase to construct pSicoR-shScramble and pSicoR-sheIF4E vectors, respectively. Neuro2A cells were cultured and transfected with pSicoR to evaluate the translational downregulation of eIF4E in the same manner as in Example 1.2.
Construction of pCIG-MTOR mutant-IRES-GFP; mU6-shScramble or pCIG-MTOR mutant-IRES-GFP; mU6-sheIF4E vector and the inhibitory activity of sheIF4E against eIF4E were identified by western blot analysis using cell lysates.

[2] = test system: FMCD and epilepsy animal models (mTOR-p.C1483Y, mTOR-p.L2427P); test: 3-Chamber test (social interaction), FMCD epilepsy models; format: in vivo, mouse; details: mU6-sheIF4E models compared to mU6-shscramble models
Method: The 3-Chamber test measures social interaction and preference for social novelty. This apparatus consisted of three chambers with dimensions of 12×20×26 cm for the center chamber and dimensions of 14×20×26 cm for the opposite side chambers. Each of the opposite side chambers included a plastic cage (11 cm in diameter, 2.15 cm in height) for an object or stranger mouse in a corner. This experiment consisted of three sessions of habituation (10 min), exploring object/mouse (10 min), and exploring familiar/new mouse (10 min). In the second session, a WT stranger mouse was randomly placed in a plastic cage while the opposite plastic cage was empty. The mouse was allowed to freely explore the whole apparatus. The time spent in each chamber was measured and then used for the subsequent social interaction test. In the last session, a new WT stranger was placed in the empty plastic cage.
Experiments were performed on the FMCD and epilepsy animal models (mTOR-p.C1483Y, mTOR-p.L2427P) of Example 7-1 and the control normal animal models (mTOR-WT). […]
(§1) Briefly, ASO #77 was administered by ICV injection to the FMCD and epilepsy animal models were generated with the pCIG-mTOR mutant-IRES-EGFP of Example 1. ASO #77 was evaluated for therapeutic potential for neuropsychiatric disorder accompanying the FMCD epilepsy animal models in the substantially same manner as in Example 6.

[3] = test system: FMCD epilepsy animal models; test: Cortical dysplasia, neuron size and synaptic spine density in sheIF4E FMCD mice; format: in vivo, mouse
Method: Then, mice born following the electroporation of Example 1-6 were analyzed for neuronal cell size and synaptic spine density. Neuronal cell size was measured in ImageJ software (http://rsbweb.nih.gov/ij/). Synaptic spines were counted using a 63× objective lens. Ten basal dendrites were acquired per subject, and measured in electroporated cells expressing a GFP reporter, using manual counting. For neuronal cell size (FIG. 12), mouse brain tissues at postnatal day 21 were acquired and the size of GFP (green)-positive mutant cells (shScramble or sheIF4E expressed) was measured. For synaptic spine density (FIG. 13), mouse brain tissues at postnatal day 21 were acquired and synaptic spines of basal dendrites were counted in GFP (green)-positive mutant cells (shScramble or sheIF4E expressed).
In addition, for cortical dysplasia (FIG. 11), mouse brain tissues at postnatal day 7 of Example 2-1 were acquired and distributions of GFP (green)-positive mutant cells (shScramble or sheIF4E expressed) in the cortex were detected (n=5 in each case. Scale bar=100 μm. Mean±SEM).

ADK, IRSp53, and CREB1 = test: Immunostaining for ADK, IRSp53 and CREB1 in sheIF4E FMCD mice; format: in vivo, mouse; details: mTOR p.Cys1483Tyr and p.Leu2427Pro mice, compared to shScramble mice
Description: Therefore, the present inventors performed additional immunostaining in order to investigate in vivo knockdown effect on the expression of ADK, IRSp53, and CREB1 in the FMCD mice, and confirmed significant reduced expression of the genes (FIG. 9e). In the brain tissues at postnatal day 21 from the animal models established using pCIG-MTOR mutant-IRES-GFP; mU6-sheIF4E vector in the same manner as in Examples 1-3 and 3-1, the expression of ADK, IRSp53, and CREB1 was decreased with decreasing of eIF4E expression.
In order to examine whether sheIF4E-mediated in-vivo knockdown of eIF4E led to the expression downregulation of eIF4E-sensitive genes, expression of eIF4E-sensitive genes was analyzed by immunofluorescence. The immunofluorescence results are depicted in FIG. 9e. The animal models with the sheIF4E-mediated eIF4E knockdown characteristic and the shScramble mice were substantially the same as in Example 2-1.

[4] = test system: FMCD and epilepsy animal models (mTOR-p.C1483Y, mTOR-p.L2427P); test: Social avoidance test, FMCD epilepsy models; format: in vivo, mouse; details: mU6-sheIF4E models compared to mU6-shscramble models
Method: The arena was a black box (400×400 mm).
(§2) Experiments were performed on the FMCD and epilepsy animal models (mTOR-p.C1483Y, mTOR-p.L2427P) of Example 7-1 and the control normal animal models (mTOR-WT). The same sheIF4E as that described in Example 2 was used. Week 2 after sheIF4E injection, the handling was performed in the animals. Week 3 after sheIF4E injection, the animals were subjected to the behavioral tests.
(§3) The epilepsy animal models were subjected to the substantially same behavioral abnormality assay as in Example 6. The results are depicted in FIGS. 28 and 29.
as §1

[5] = test system: FMCD and epilepsy animal models (mTOR-p.C1483Y, mTOR-p.L2427P); test: Light & dark box test, FMCD epilepsy models; format: in vivo, mouse; details: mU6-sheIF4E models compared to mU6-shscramble models
Method: (§4) Behaviors were recorded and analyzed using EthoVision XT (Noldus).
as §2, §3, §1

[6] = test system: FMCD and epilepsy animal models (mTOR-p.C1483Y, mTOR-p.L2427P); test: Sucrose preference test, FMCD epilepsy models; format: in vivo, mouse; details: mU6-sheIF4E models compared to mU6-shscramble models
Method: Each of mice was habituated for 3-5 days in a cage with two selectable water bottles presented. Thereafter, the mice were each placed in the same cage as the habituation cage at the day of experiment. The mice were presented with two dual bottles, one containing tap water and the other containing 1% sucrose solution. Water and sucrose solution intake was measured after 24 hours and sucrose preference was calculated according to volume of sucrose intake/total volume of fluid intake×100%.
The same sheIF4E as that described in Example 2 was used. Week 2 after sheIF4E injection, the handling was performed in the animals. Week 3 after sheIF4E injection, the animals were subjected to the behavioral tests.
The epilepsy animal models were subjected to the substantially same behavioral abnormality assay as in Example 6.
as §1

[7] = test system: FMCD animal models (mTOR p.C1483Y, mTOR p.L2427P); test: Video seizure monitoring in FMCD animal models with sheIF4E-mediated eIF4E knockdown; format: in vivo, mouse
Method: In FMCD animal models, the onset of epilepsy starts at postnatal day 21 on average and has been completed within postnatal day 50. Video EGG monitoring was conducted from 3 weeks after birth. EGG signals were recorded for 12 hours per day three times in a week from postnatal day 21 to postnatal day 120. From the 12-hour video recordings, the number and length of seizures were measured.
From the 12-hours video recordings, the number and length of seizures were measured (FIG. 10).

[8] = test system: FMCD and epilepsy animal models (mTOR-p.C1483Y, mTOR-p.L2427P); test: Marble burying test, FMCD epilepsy models; format: in vivo, mouse; details: mU6-sheIF4E models compared to mU6-shscramble models
Method: A mouse was placed in the cage.
as §2, §3, §1

eIF4E [9] = test: Immunostaining for eIF4E in sheIF4E FMCD mice; format: in vivo, mouse; details: brain tissue at postnatal day 21
Description: For the animal model, prepared in Example 2-1, in which eIF4E was knock-downed using sheIF4E, after embryos that had been electroporated with a plasmid carrying an mTOR mutant gene at embryonic day 14 (E14), in the same manner as in U.S. Pat. No. 9,629,346, were born, the mice expressing fluorescence were screened by flashlight (Electron Microscopy Science, USA).

[10] = test system: FMCD and epilepsy animal models (mTOR-p.C1483Y, mTOR-p.L2427P); format: in vivo, mouse
Method: as §4, §2, §3, §1

Molecule | seizure onset (FMCD animal models; early treatment P14 to P56, intraperitoneal, 200 m/kg) | seizure frequency and duration (FMCD animal models; epilepsy animal models, FIGS. 14 and 15) | seizure frequency (FMCD animal models; late treatment P84 to P114, intraperitoneal, 200 m/kg) | knockdown of eIF4E by western blot (eIF4E [1]) | time spent in sniffing zone (social ability) [2] | cortical dysplasia ([3]; brain tissue at postnatal day 7) | defective neuronal migration ([3]; mTOR mutant mice) | decreased synaptic spine density ([3]; postnatal day 21) | hypertrophic soma (neuronal cell size) ([3]; postnatal day 21) | expression of eIF4E sensitive genes ADK, IRSp53, and CREB1 (ADK, IRSp53, and CREB1) | time spent to interact with the stranger mouse (social ability and depression) [4] | time spent in center (residence time within the light box) [5] | % sucrose preference [6] | frequency and time of seizure ([7]; FMCD animal models in which epilepsy was generated) | spontaneous seizures ([7]; FMCD epilepsy mice) | animals with seizure ([7]; mTOR p.L2427P mutation, video recordings until postnatal day 120) | number of buried marbles (repetitive behavior) [8] | eIF4E expression in sheIF4E-expressing neurons (immunostaining) (eIF4E [9]) | time spent in center (index of anxiety) ([10]; mU6-sheIF4E models compared to mU6-shscramble models) | dyskinesia (behavior test) ([10]; mouse, in vivo)
CN(C)C(=N)N=C(N)N [metformin] | prevented seizure onset | reduction of seizure frequency and duration | suppressed seizure frequency | – | – | – | – | – | – | – | – | – | – | – | – | – | – | – | – | –
sheIF4E: shRNA against eIF4E, sense SEQ ID NO: 203 and antisense SEQ ID NO: 204, expressed from mU6 promoter in pCIG-mTOR mutant vector (nucleic acid) sense: TCGATTGATCTCTAAGTTTGATTTCAAGAGAATCAAACTTAGAGATCAATCGTTTTTTCTCGA antisense: TCGAGAAAAAACGATTGATCTCTAAGTTTGATTCTCTTGAAATCAAACTTAGAGATCAATCGA | – | – | – | efficient knockdown | increased | remarkably reduced | significantly alleviated | rescued | rescued | significantly reduced | increased | increased | increased | remarkably decreased | almost completely rescued | five of 20 | increased | significantly reduced | increased | no dyskinesia
